Data taken from the RNAGym collection of RNA variant scans (doi:10.7554/elife.90254).

B1: LINE1-full (parent)
chain: UACGUAGGUGGUUUUCCCCUGAUAGUGCUAAGGGGGCCUGGAAGUUUGGACUGGGCAGAGCUCAACACAGCGUGGCAAAGUGGCUGUGGCUAGACUGCCUCUCUGGAUUCCUCGUCACUCAGCAGGGCAUCUCUGAGAGAAAUGCC

Variants of: B1
Experiment: self-cleavage, relative activity (ratio to wild type); higher = more cleavage; in vitro, sequencing; the parent is a self-cleaving ribozyme

Variant | self-cleavage
U62C A124U | 0.05
A65G C95U | 0.05
A65G U81C | 0.09
U62C C95U | 0.03
A65G C101U | 0.04
U62C G127A | 0.06
A65G C128U | 0.05
A65U A94G | 0.1
U62C G83U | 0.03
U62C A129U | 0.01
U62C A129G | 0.06
U62C U73G | 0.06
U62C U73A | 0.03
A64C A65G | 0.19
A64C A65U | 0.06
A64U U81A | 0.85
A64U G114A | 0.41
U62C U130C | 0.06
A65G G139A | 0.06
A64G U96C | 0.15
U62A U130A | 0.03
A65U A136G | 0.2
A64G C66U | 0.08
U62C A69U | 0.03

Variant | self-cleavage
U62C G88U | 0.04
C63U U73G | 0.21
A65G G135U | 0.14
A65G U134G | 0.03
A65G U134C | 0.06
C63A A79G | 0.12
A64C A67G | 0.04
U62A U115C | 0.04
A64C U73A | 0.32
A65G A67G | 0.09
A65G A67U | 0.03
A65G A67C | 0.14
A64U A78G | 0.27
U62A U104A | 0.04
U62A U104C | 0.1
A64G A124G | 0.28
U62G A67G | 0.09
U62G U87G | 0
U62G U87A | 0.1
A65U C99U | 0.1
A64G U100A | 0.23
A64G U100C | 0.29
U62A U119A | 0.04
U62C G97C | 0.06

Variant | self-cleavage
U62C C76U | 0.07
U62C A94C | 0.07
U62C A94G | 0.11
A64U A69U | 0.07
A64U A69G | 0.17
U62C G114A | 0.05
A65G G105A | 0.01
A64U U119C | 0.61
U62C U85G | 0
U62C U119A | 0.07
U62C U119C | 0.07
A65G A79U | 0.04
A64G U115G | 0.35
A64G U115A | 0.08
A64C A141U | 0.3
A64C A141G | 0.48
A65G C145G | 0.02
A65G U132A | 0.04
A65C A136G | 0
A64G A121G | 0.28
A65G G127A | 0.05
C63U U143C | 0.3
C63U U143A | 0.44
A65U C111U | 0.24

Variant | self-cleavage
U62C U91G | 0
A64G C113A | 0.17
A64G C113U | 0.13
A65G A129U | 0.02
A65G A129G | 0.03
U62C U87C | 0.05
U62C U87A | 0.04
A65G C90A | 0.01
A65G C90G | 0.09
A64G C123U | 0.26
A65G C113U | 0.04
A64G C116A | 0.1
A65G U91A | 0.02
A64G A138U | 0.27
A64U U109A | 0.49
A64U A121U | 0.53
A64U A121G | 0.49
A65U C133U | 0.16
A65G U73C | 0.06
A65G U73A | 0.04
A64U U132C | 0.49
A64U U132G | 0.61
A64U U85C | 0.08
A64C U134C | 0.61

Variant | self-cleavage
A64G C118U | 0.29
C63A A140G | 0
A65G A107U | 0
U62C U100C | 0.09
U62C C99U | 0.04
A64C U81A | 0.44
A64C U81G | 0.3
A64G A79G | 0.24
A65G C103U | 0.06
A64U A141G | 0.32
A64C A69U | 0.05
A64U U143C | 0.42
A65U A69U | 0.03
U62G A136G | 0
A64G G97A | 0.07
A64G G97C | 0.11
U62C A141U | 0.03
C63U U100G | 0.35
C63U U100C | 0.99
A64U G70A | 0.07
A64G C146U | 0.24
A65G U112A | 0.04
A64C U143C | 0.35
A65G G122U | 0.07

Variant | self-cleavage
A65U G127U | 0.28
A65G G86A | 0.02
A65U U96A | 0
A64C C145U | 0.4
A64C U87C | 0.22
A65G A121G | 0.08
A64U A65G | 0.07
U62C U109C | 0.08
U62C U109A | 0.03
A65G U143A | 0.06
A65G U143C | 0.08
A64C U96C | 0.18
A64U U100A | 0.23
A64U U100C | 0.77
U62C C110A | 0.05
U62C U104C | 0.07
U62C U104A | 0.05
A64C C95A | 0.01
A64U U130G | 0.43
A64U U130C | 0.55
C63U A141G | 0.36
A64G A136G | 0.22
A64G A136U | 0.28
U62C C146U | 0.03

Variant | self-cleavage
A65U U104A | 0.14
A65G U119A | 0.05
A64C U108C | 0.39
C63U A129G | 0.3
A65G U102A | 0.01
A65G U102G | 0
A65G U102C | 0.08
A64U C113A | 0.17
A64U C113U | 0.28
U62G C63U | 0.07
A64U A67G | 0.15
C63A U73A | 0.06
A64G A117G | 0.21
C63A A129G | 0.09
C63A A129U | 0.06
C63A A65G | 0.02
A65G G88A | 0.02
A65U U73C | 0.16
U62C A140U | 0.04
A64G U81C | 0.3
U62C A142G | 0.06
U62C C123U | 0.01
U62C C123G | 0.07
